From the supplement of paper PMC5998384 come the findings set out here.

The subject of data set [1] is HeLa Kyoto. Nature of the data set: melting temperature (median over replicates), in situ; higher = more thermally stable.
The test system of data set [2] is HeLa Kyoto. Nature of the data set: thermal stability score vs G1/S (z-score of summed log2 fold changes over temperatures); higher = more thermally stable than in G1/S.
In data set [3] the test system is HeLa Kyoto. Nature of the data set: solubility in G1/S (NP-40 vs SDS abundance) (log2 ratio); higher = more soluble. The following applies: cell cycle stage: G1/S.
For data set [4], the system named is HeLa Kyoto. Nature of the data set: solubility change mitosis vs G1/S (difference of NP-40 vs SDS log2 ratios) (log2 ratio difference); higher = more soluble in mitosis.
Setting [5] is: cell cycle stage: early G1 (4.5 h after nocodazole release).
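Throughout, for melting temperature (median over replicates), in situ: HeLa Kyoto cells synchronized by double thymidine or nocodazole block, proteins quantified by TMT10plex mass spectrometry, three independent biological replicates.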
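Throughout, for solubility change mitosis vs G1/S (difference of NP-40 vs SDS log2 ratios): synchronized HeLa Kyoto cells (double thymidine block for G1/S, nocodazole release for mitosis), protein amounts in NP-40 versus SDS lysates quantified by mass spectrometry, three biological replicates.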
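Throughout, for solubility in G1/S (NP-40 vs SDS abundance): HeLa Kyoto cells arrested at G1/S by double thymidine block, proteins quantified by TMT10plex mass spectrometry in mild NP-40 versus SDS extracts, three biological replicates.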
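Throughout, for thermal stability score vs G1/S (z-score of summed log2 fold changes over temperatures): synchronized HeLa Kyoto cells, proteins quantified by TMT10plex mass spectrometry, three biological replicates, mitosis taken 0.5 h after nocodazole release, G1/S directly after double thymidine block.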

For the sequence “MAMNYNAKDEVDGGPPCAPGGTAKTRRPDNTAFKQQRLPAWQPILTAGTVLPIFFIIGLIFIPIGIGIFVTSNNIREIEIDYTGTEPSSPCNKCLSPDVTPCFCTINFTLEKSFEGNVFMYYGLSNFYQNHRRYVKSRDDSQLNGDSSALLNPSKECEPYRRNEDKPIAPCGAIANSMFNDTLELFLIGNDSYPIPIALKKKGIAWWTDKNVKFRNPPGGDNLEERFKGTTKPVNWLKPVYMLDSDPDNNGFINEDFIVWMRTAALPTFRKLYRLIERKSDLHPTLPAGRYSLNVTYNYPVHYFDGRKRMILSTISWMGGKNPFLGIAYIAVGSISFLLGVVLLVINHKYRNSSNTADITI [TMEM30A]”, the melting temperature came to 54.2 °C in the data set on HeLa Kyoto [1] (cell cycle stage: G1/S) and 54.6 °C in the data set on HeLa Kyoto [1] (cell cycle stage: mitosis). Also, the results for the thermal stability score in the data set on HeLa Kyoto [2] (setting [5]) and in the data set with HeLa Kyoto [2] (cell cycle stage: mitosis) were -0.78 and 0.594, respectively. Besides, the “solubility in G1/S (log2)” value in the data set on HeLa Kyoto [3] amounted to 0.428. Further, in the data set with HeLa Kyoto [4], the “solubility change mitosis (log2)” value was -0.17.
For the sequence “MNVNQSVPPVPPFGQPQPIYPGYHQSSYGGQSGSTAPAIPYGAYNGPVPGYQQTPPQGMSRAPPSSGAPPASTAQAPCGQAAYGQFGQGDVQNGPSSTVQMQRLPGSQPFGSPLAPVGNQPPVLQPYGPPPTSAQVATQLSGMQISGAVAPAPPSSGLGFGPPTSLASASGSFPNSGLYGSYPQGQAPPLSQAQGHPGIQTPQRSAPSQASSFTPPASGGPRLPSMTGPLLPGQSFGGPSVSQPNHVSSPPQALPPGTQMTGPLGPLPPMHSPQQPGYQPQQNGSFGPARGPQSNYGGPYPAAPTFGSQPGPPQPLPPKRLDPDAIPSPIQVIEDDRNNRGTEPFVTGVRGQVPPLVTTNFLVKDQGNASPRYIRCTSYNIPCTSDMAKQAQVPLAAVIKPLARLPPEEASPYVVDHGESGPLRCNRCKAYMCPFMQFIEGGRRFQCCFCSCINDVPPQYFQHLDHTGKRVDAYDRPELSLGSYEFLATVDYCKNNKFPSPPAFIFMIDVSYNAIRTGLVRLLCEELKSLLDFLPREGGAEESAIRVGFVTYNKVLHFYNVKSSLAQPQMMVVSDVADMFVPLLDGFLVNVNESRAVITSLLDQIPEMFADTRETETVFVPVIQAGMEALKAAECAGKLFLFHTSLPIAEAPGKLKNRDDRKLINTDKEKTLFQPQTGAYQTLAKECVAQGCCVDLFLFPNQYVDVATLSVVPQLTGGSVYKYASFQVENDQERFLSDLRRDVQKVVGFDAVMRVRTSTGIRAVDFFGAFYMSNTTDVELAGLDGDKTVTVEFKHDDRLNEESGALLQCALLYTSCAGQRRLRIHNLALNCCTQLADLYRNCETDTLINYMAKFAYRGVLNSPVKAVRDTLITQCAQILACYRKNCASPSSAGQLILPECMKLLPVYLNCVLKSDVLQPGAEVTTDDRAYVRQLVTSMDVTETNVFFYPRLLPLTKSPVESTTEPPAVRASEERLSNGDIYLLENGLNLFLWVGASVQQGVVQSLFSVSSFSQITSGLSVLPVLDNPLSKKVRGLIDSLRAQRSRYMKLTVVKQEDKMEMLFKHFLVEDKSLSGGASYVDFLCHMHKEIRQLLS [SEC24C]”, the melting temperature with HeLa Kyoto [1] (cell cycle stage: G1/S) turned out to be 50.6 °C; with HeLa Kyoto [1] (cell cycle stage: mitosis) it was 50.3 °C. Further, the figures for the thermal stability score in the data set on HeLa Kyoto [2] (setting [5]) and in the data set with HeLa Kyoto [2] (cell cycle stage: mitosis) were 1.19 and 1.53, respectively. Besides, the “solubility in G1/S (log2)” value in the data set on HeLa Kyoto [3] is 0.0263. Further, the “solubility change mitosis (log2)” value in the data set on HeLa Kyoto [4] was -0.121.
Turning to “MAAGPISERNQDATVYVGGLDEKVSEPLLWELFLQAGPVVNTHMPKDRVTGQHQGYGFVEFLSEEDADYAIKIMNMIKLYGKPIRVNKASAHNKNLDVGANIFIGNLDPEIDEKLLYDTFSAFGVILQTPKIMRDPDTGNSKGYAFINFASFDASDAAIEAMNGQYLCNRPITVSYAFKKDSKGERHGSAAERLLAAQNPLSQADRPHQLFADAPPPPSAPNPVVSSLGSGLPPPGMPPPGSFPPPVPPPGALPPGIPPAMPPPPMPPGAAGHGPPSAGTPGAGHPGHGHSHPHPFPPGGMPHPGMSQMQLAHHGPHGLGHPHAGPPGSGGQPPPRPPPGMPHPGPPPMGMPPRGPPFGSPMGHPGPMPPHGMRGPPPLMPPHGYTGPPRPPPYGYQRGPLPPPRPTPRPPVPPRGPLRGPLPQ [SF3B4]”, the melting temperature with HeLa Kyoto [1] (cell cycle stage: G1/S) came out at 50.9 °C; in the data set on HeLa Kyoto [1] (cell cycle stage: mitosis) it was 51.3 °C. For the same sequence, the thermal stability score is -2.15 in the data set on HeLa Kyoto [2] (setting [5]) and -2.49 with HeLa Kyoto [2] (cell cycle stage: mitosis). Moreover, the “solubility in G1/S (log2)” value in the data set with HeLa Kyoto [3] was 0.275. In addition, the “solubility change mitosis (log2)” value in the data set on HeLa Kyoto [4] is 0.162.
